Test results published in patent publication US8338168B2.

What was measured:
[1] = target: RDPrHIV mutant glycoprotein (feline endogenous virus RD114)
[2] = target: CH-296 retronectin fragment (Homo sapiens (Human)) (UniProt P02751)

| Substance | infectivity of MLV pseudotyped vectors on TE671 cells [1] [fold] | transduction efficiency of human CD34+ cells on retronectin-coated plates against no retronectin [2] [fold] |
| --- | --- | --- |
| MLV viral core protease (enzyme) | < 20 |  |
| RD114/TR chimeric glycoprotein |  | 10 |
